Measurements reported in US20090192048A1, “METHOD OF PRODUCING A […] AGENT FOR BINDING A LIGAND” (priority 2005, published 2009).
Ends that are not written are not given here.

How the values were obtained:
Type in all cases: physicochemical
[1] = Retention of peptides 2DOS-1 to 2DOS-16 on a hydrophobic surface (polypropylene microtitre plate wells), water wash; conditions: 400V scan; for Initial fluorescence (×10^3): 100 μl of 10 μM peptide before drying and washing; for Recovered fluorescence (×10^3): dried, washed ten times with 250 μl water, resuspended
Protocol: The retention of peptides 2DOS-1 to 2DOS-16 on a hydrophobic surface (the wells of a polypropylene microtitre plate) was then investigated.
(§1) 10 mM tris-HCl (pH 8.0) in 50% (v/v) aqueous acetonitrile was used as the solvent for the peptides and for TAMRA.
100 μl aliquots of 10 μM peptides 2DOS-1 to 2DOS-16 and 10 μM TAMRA were placed in the wells of a Costar microtitre plate as shown in FIG. 13:
(§2) The microtitre plate was imaged at 200 μm resolution on a Typhoon Trio Plus variable mode imager (Amersham Biosciences) with the green (532 nm) laser and the 580 BP 30 filter at the PMT voltages indicated below and at normal sensitivity. The scan height was set at +3 mm and the sample was pressed during scanning.
The peptides were allowed to evaporate to dryness overnight in the dark and the microtitre plate was again scanned as described above.
The wells were then washed ten times with 250 μl of water.
The residual surface-bound peptides were finally resuspended in 100 μl of 10 mM tris-HCl (pH 8.0) in 50% (v/v) aqueous acetonitrile and the microtitre plate was again scanned as described above.
(§3) The fluorescence images were analysed using ImageQuant TL v2003.03 (Amersham Biosciences).
Quantification data (using the data from the 400V scan) is given in Table 2 and shown graphically in FIG. 15.

[2] = Retention of peptides in V-bottomed polypropylene wells; conditions: V-bottom wells, 500V scan; for Untreated fluorescence: unwashed; for Retained fluorescence: washed 15 minutes in 1 M NaCl in 10 mM tris-HCl (pH 8.0)
Protocol: (§4) The retention of peptides 2DOS-1 to 2DOS-16 (see above) on polypropylene wells of different geometries was investigated:
as §1
(§5) 1 μl aliquots of 10 μM peptides 2DOS-1 to 2DOS-16 and 10 μM TAMRA were pipetted into the wells of a Costar V-bottomed polypropylene microtitre plate and a Greiner flat-bottomed polypropylene microtitre plate according to the following scheme as shown in FIG. 22:
(§6) The peptide samples were allowed to evaporate to dryness in the dark.
(§7) The peptide samples in the top two rows of the microtitre plates were then incubated for 15′ minutes at room temperature in 250 μl of 1 M NaCl in 10 mM tris-HCl (pH 8.0).
(§8) After incubation, the wash buffer was pipetted up and down eight times in the well before removing the supernatant.
(§9) The washed and untreated peptide samples were then resuspended in 50 μl of 10 mM tris-HCl (pH 8.0) in 50% (v/v) aqueous acetonitrile.
as §2, with “plates were” for “plate was”, “the platen” for “+3 mm”, “during,” for “during”
as §3

[3] = Retention of peptides in flat-bottomed polypropylene wells; conditions: flat-bottom wells, 500V scan; for Untreated fluorescence: unwashed; for Retained fluorescence: washed 15 minutes in 1 M NaCl in 10 mM tris-HCl (pH 8.0)
Protocol: as §4, §1, §5, §6, §7, §8, §9
as §2, with “plates were” for “plate was”, “the platen” for “+3 mm”, “during,” for “during”
as §3

[4] = Retention of peptides on Costar polypropylene V-bottom wells; conditions: 400V scan; for Untreated fluorescence: unwashed; for Retained fluorescence: washed 15 minutes in 1 M NaCl in 10 mM tris-HCl (pH 8.0)
Protocol: (§10) The retention of peptides 2DOS-1 to 2DOS-16 (see above) on polypropylene and polystyrene surfaces was compared:
(§11) 5 mM tris-HCl (pH 8.0) in 75% (v/v) aqueous acetonitrile was used as the solvent for the peptides and for TAMRA.
(§12) 20 μl aliquots of 5 μM peptides 2DOS-1 to 2DOS-16 and 5 μM TAMRA were pipetted into the wells of a Costar V-bottomed polypropylene microtitre plate, a Greiner V-bottomed polypropylene microtitre plate, and a Greiner V-bottomed polystyrene microtitre plate according to the scheme shown in FIG. 26:
as §6
(§13) The peptide samples in the top two rows of the microtitre plates were then incubated for 15 minutes at room temperature in 250 μl of 1 M NaCl in 10 mM tris-HCl (pH 8.0).
as §8, §9
as §2, with “plates were” for “plate was”
as §3

[5] = Retention of peptides on Greiner polypropylene V-bottom wells; conditions: 400V scan; for Untreated fluorescence: unwashed; for Retained fluorescence: washed 15 minutes in 1 M NaCl in 10 mM tris-HCl (pH 8.0)
Protocol: as §10, §11, §12, §6, §13, §8, §9
as §2, with “plates were” for “plate was”
as §3

[6] = Retention of peptides on Greiner polystyrene V-bottom wells; conditions: 400V scan; for Untreated fluorescence: unwashed; for Retained fluorescence: washed 15 minutes in 1 M NaCl in 10 mM tris-HCl (pH 8.0)
Protocol: as §10, §11, §12, §6, §13, §8, §9
as §2, with “plates were” for “plate was”
as §3

| Substance | Initial fluorescence (×10^3) [1] | Recovered fluorescence (×10^3) [1] | Percent retention [2] [%] | Untreated fluorescence [2] | Retained fluorescence [2] | Percent retention [3] [%] | Untreated fluorescence [3] | Retained fluorescence [3] | Percent retention [4] [%] | Untreated fluorescence [4] | Retained fluorescence [4] | Percent retention [5] [%] | Untreated fluorescence [5] | Retained fluorescence [5] | Percent retention [6] [%] | Untreated fluorescence [6] | Retained fluorescence [6] |
| --- | --- | --- | --- | --- | --- | --- | --- | --- | --- | --- | --- | --- | --- | --- | --- | --- | --- |
| N-TAMPA-Asp-Asp- Asp-Ala-Asp-Ser- Asp-Lys-Asp-C ({TAMRA}-DDDADSDKD) [Peptide 2DOS-4] | 32,313 ×10^3 | 0 ×10^3 | 2 | 8,265,596 | 159,080 | 2 | 11,885,905 | 198,507 | 1 | 5,661,181 | 74,143 | 1 | 3,937,734 | 50,669 | 1 | 783,885 | 6,714 |
| N-TAMPA-Asp-Asp- Asp-Asp-Asp-Asp- Asp-Asp-Asp-C ({TAMRA}-DDDDDDDDD) [Peptide 2DOS-12] | 26,433 ×10^3 | 1 ×10^3 | 1 | 6,777,661 | 52,365 | 1 | 12,982,170 | 106,741 | 0 | 4,432,090 | 18,180 | 1 | 3,235,590 | 20,175 | 1 | 684,832 | 3,788 |
| N-TAMPA-Asp-Asp- Asp-Asp-Asp-Asp- Asp-C ({TAMRA}-DDDDDDD) [Peptide 2DOS-16] | 30,335 ×10^3 | 3 ×10^3 | 0 | 9,782,527 | 44,420 | 1 | 15,555,465 | 229,090 | 0 | 5,387,850 | 16,194 | 1 | 3,813,060 | 25,885 | 0 | 789,858 | 3,864 |
| N-TAMPA-Norleu- Asp-Norleu-Asp- Norleu-Asp-Norleu- Asp-Norleu-C [Peptide 2DOS-9] | 34,587 ×10^3 | 2,382 ×10^3 | 14 | 11,662,691 | 1,608,482 | 16 | 13,456,698 | 2,148,849 | 17 | 7,102,251 | 1,184,648 | 12 | 3,621,913 | 439,252 | 10 | 626,304 | 62,023 |
| N-TAMRA-Asp- Norleu- Asp-Norleu-Asp- Norleu-Asp-C [Peptide 2DOS-13] | 26,181 ×10^3 | 25 ×10^3 | 11 | 7,623,227 | 806,022 | 17 | 12,935,739 | 2,162,164 | 8 | 4,886,617 | 387,738 | 10 | 3,635,229 | 378,287 | 9 | 708,162 | 62,590 |
| N-TAMRA-Asp-Phe- Ala-Phe-Ser-Phe- Lys-C ({TAMRA}-DFAFSFK) [Peptide 2DOS-6] | 33,853 ×10^3 | 1,455 ×10^3 | 39 | 9,141,290 | 3,527,116 | 36 | 14,539,109 | 5,256,539 | 22 | 5,733,046 | 1,256,204 | 22 | 3,889,995 | 849,582 | 25 | 666,352 | 167,118 |
| N-TAMRA-Asp-Phe- Asp-Phe-Asp-Phe- Asp-C ({TAMRA}-DFDFDFD) [Peptide 2DOS-14] | 28,071 ×10^3 | 283 ×10^3 | 13 | 7,641,246 | 1,018,179 | 4 | 15,090,582 | 670,341 | 11 | 5,331,894 | 595,959 | 13 | 3,612,113 | 461,468 | 9 | 860,811 | 75,304 |
| N-TAMRA-Asp-Ser- Ala-Ser-Ser-Ser- Lys-C ({TAMRA}-DSASSSK) [Peptide 2DOS-7] | 29,134 ×10^3 | 0 ×10^3 | 9 | 8,674,544 | 746,596 | 13 | 10,189,473 | 1,303,195 | 6 | 5,139,578 | 326,328 | 5 | 3,751,280 | 205,430 | 2 | 706,200 | 15,766 |
| N-TAMRA-Asp-Ser- Asp-Ser-Asp-Ser- Asp-C ({TAMRA}-DSDSDSD) [Peptide 2DOS-15] | 30,845 ×10^3 | 2 ×10^3 | 1 | 10,493,100 | 122,851 | 1 | 15,290,885 | 104,523 | 1 | 6,488,130 | 50,584 | 1 | 4,771,265 | 65,142 | 1 | 868,334 | 5,116 |
